The results in this text go back to patent US20110263825A1 (OSAKA UNIVERSITY, published 2011).

B1: humanized antibody 1782 clone ff (antibody, V domains shown)
VH: QVQLVQSGAEVKKPGASVKVSCKASGYTFTSYWMHWVKQAPGQGLEWIGYITPSTGYTDYNKKFKDKATLTADRSSSTAYMELSSLRSEDTAVYYCARSGPYFDVWGAGTTVTVSS
VL: DILLTQSPATLSVSPGERATLSCRASQNIGTSIHWYQQRPGQSPRLLIKYASESFSGIPSRFSGSGSGTDFTLTINSLQPEDIADYYCQQSNSWPFTFGSGTKLEIK
notes: kg1 constructs (C kappa / C gamma1 vector); also called h1782ff; hz1782-ff14
B2: humanized antibody 1782 clone sf (antibody, V domains shown)
VH: B1 VH
VL: B1 VL with V13L, I29V, I33L, R39K, S54R, S56T, N76S, Q79E, I83F
notes: kg1 constructs; also called h1782sf; hz1782-sf23
B3: humanized antibody 1782 clone fv (antibody, V domains shown)
VH: B1 VH with V11L
VL: B1 VL
notes: kg1 constructs; also called h1782fv; hz1782-fv02
B4: humanized antibody 1782 clone ss (antibody, V domains shown)
VH: B1 VH with K62Q, K65Q, D66G
VL: B1 VL with V13L, I29V, I33L, R39K, S54R, S56T, N76S, Q79E, I83F
notes: kg1 constructs; also called h1782ss; hz1782-ss21

Positions count from the first letter of the chain named.

For one assay, the target named is T1, human CD20 antigen (human, UniProt P11836 1-297).
T1 construct: whole, on cells; also called human CD20 molecule
T1 sequence (looked up): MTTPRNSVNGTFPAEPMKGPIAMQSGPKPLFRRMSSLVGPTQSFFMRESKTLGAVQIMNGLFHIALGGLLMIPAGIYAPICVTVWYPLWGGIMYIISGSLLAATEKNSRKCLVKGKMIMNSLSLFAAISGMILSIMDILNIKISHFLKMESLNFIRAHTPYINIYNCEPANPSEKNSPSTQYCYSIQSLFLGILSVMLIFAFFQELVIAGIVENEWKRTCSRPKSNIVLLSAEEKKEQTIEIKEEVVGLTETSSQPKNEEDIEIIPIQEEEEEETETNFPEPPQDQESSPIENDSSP
Description: Scatchard analysis on Raji cells, FITC anti-mouse IgG detection.
Usually Kd stands for the concentration at which binding is half-saturated. A lower Kd goes with higher affinity. The molecule mouse antibody 2B8 came in with a Kd of 6.79 nM.

In another assay the target is T1, human CD20 antigen. The assay is described as follows: Scatchard analysis on Raji cells, FITC-labeled Protein A detection.
B1 yielded a Kd of 4.38 nM.

B2 returned a Kd of 7.43 nM.

The molecule B3 came in with a Kd of 6.76 nM.

Molecule B4 gave a dissociation constant Kd of 8.64 nM. The Kd values of the last two molecules are within 1.5-fold of each other.

A further assay has as its target T1, human CD20 antigen. Description: Scatchard analysis on Raji cells, FITC-labeled Protein A detection; repeated from Table 8.
Turning to B1, the Kd was found to be 4.38 nM.

B2 displayed a dissociation constant Kd of 7.43 nM.

Take B3: the affinity, expressed as Kd, was 6.76 nM.

In turn, B4 had a Kd of 8.64 nM.
